From publication PMC10414051, “FOXP1-GINS1 axis promotes DLBCL proliferation and directs doxorubicin resistance”

Target: T1, FOXP1 (recombinant, pET28a) (UniProt Q9H334 1-677)
T1 sequence: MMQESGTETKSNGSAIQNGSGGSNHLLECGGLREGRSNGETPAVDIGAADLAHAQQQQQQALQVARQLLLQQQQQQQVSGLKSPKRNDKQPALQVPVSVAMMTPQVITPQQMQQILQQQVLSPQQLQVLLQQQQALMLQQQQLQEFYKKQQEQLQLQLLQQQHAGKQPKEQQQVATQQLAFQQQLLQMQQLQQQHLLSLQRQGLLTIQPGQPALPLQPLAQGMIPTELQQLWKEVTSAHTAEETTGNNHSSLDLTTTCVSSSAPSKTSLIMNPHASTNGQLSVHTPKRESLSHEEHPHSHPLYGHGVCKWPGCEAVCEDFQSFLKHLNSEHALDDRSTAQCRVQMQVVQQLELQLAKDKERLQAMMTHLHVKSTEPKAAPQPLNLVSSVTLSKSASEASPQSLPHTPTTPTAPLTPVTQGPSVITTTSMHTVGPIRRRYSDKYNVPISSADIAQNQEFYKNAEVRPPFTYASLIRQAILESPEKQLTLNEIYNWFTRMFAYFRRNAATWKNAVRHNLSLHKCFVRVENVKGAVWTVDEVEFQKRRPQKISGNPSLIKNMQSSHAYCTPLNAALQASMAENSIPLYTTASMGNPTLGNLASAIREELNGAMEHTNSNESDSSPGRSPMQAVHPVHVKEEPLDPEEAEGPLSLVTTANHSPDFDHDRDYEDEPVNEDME
Assay: EMSA; Nondenaturing PAGE EMSA, HRP-streptavidin detection; buffer, salt, pH and temperature not stated
Details: protein: recombinant; tags: His tag (implied by pET28a and Ni-NTA); chain copies: 2; blunt

B1: Probe A (GINS1 promoter FOXP1 site A) (dsDNA)
DNA 1: TCAAAAAGGCAATGTTTGCTGGGTG
DNA 2: CACCCAGCAAACATTGCCTTTTTGA
B1: binds.

B2: Probe B (GINS1 promoter FOXP1 site B) (dsDNA)
DNA 1: AGCTCAAGAGTTGTCGACCAGACTG
DNA 2: CAGTCTGGTCGACAACTCTTGAGCT
B2: binds.
